T1: rat GALR2 (galanin receptor type 2) (rat, UniProt O08726 1-372)
T1 construct: Expressed in CHO/dhfr- cells; The assays used the membrane fraction of these cells; also called rat galanin receptor GALR2
T1 sequence: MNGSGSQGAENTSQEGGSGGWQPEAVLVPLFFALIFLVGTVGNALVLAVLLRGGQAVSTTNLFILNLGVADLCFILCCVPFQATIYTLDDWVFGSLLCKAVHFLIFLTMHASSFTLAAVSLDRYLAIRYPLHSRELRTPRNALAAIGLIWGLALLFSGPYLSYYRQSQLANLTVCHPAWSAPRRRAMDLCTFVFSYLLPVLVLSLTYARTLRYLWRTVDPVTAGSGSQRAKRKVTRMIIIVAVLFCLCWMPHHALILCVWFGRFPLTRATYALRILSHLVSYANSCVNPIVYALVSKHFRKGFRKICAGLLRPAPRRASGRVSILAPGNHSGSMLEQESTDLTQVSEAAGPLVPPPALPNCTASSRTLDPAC


Assays:
[1] = biological target: T1, rat GALR2 (galanin receptor type 2); assay: displacement of [125I] rat galanin from GALR2-expressing CHO cell membrane fraction
[2] = biological target: T2, monoclonal antibody GR2-1N; assay: competitive EIA on GR2-1N, competitor HRP-labeled SEQ ID NO:44 peptide
T2 construct: Mouse monoclonal against the same KLH complex; IgG2b, κ; also called hybridoma strain No. 4

| IC50 [1] [nM] | IC50 [2] [nM] | Binder |
| --- | --- | --- |
| 1.4 | – | APVHRGRGGWTLNSAGYLLGPVLHPPSRAE (also called porcine (1-30)) [porcine ligand peptide (1-30)] |
| 1.4 | – | APVHRGRGGWTLNSAGYLLGPVLHPPSRAEGGGK (also called porcine (1-34)) [porcine ligand peptide (1-34)] |
| – | 6 | porcine ligand peptide (1-60) (also called porcine (1-60); inventive peptide synthesis product) peptide: APVHRGRGGWTLNSAGYLLGPVLHPPSRAEGGGKGKTALGILDLWKAIDGLPYPQSQLAS |

Reference: patent US7064181 (Takeda / Millennium, dated 2006)
